Substitutions are numbered along the chain they refer to.
T1: monkey MSLN full-length protein (NCBI: XP_028696439.1) expressed on HEK293T-monkey MSLN cells (monkey)
T1 construct: Whole encoded precursor
T1 chain: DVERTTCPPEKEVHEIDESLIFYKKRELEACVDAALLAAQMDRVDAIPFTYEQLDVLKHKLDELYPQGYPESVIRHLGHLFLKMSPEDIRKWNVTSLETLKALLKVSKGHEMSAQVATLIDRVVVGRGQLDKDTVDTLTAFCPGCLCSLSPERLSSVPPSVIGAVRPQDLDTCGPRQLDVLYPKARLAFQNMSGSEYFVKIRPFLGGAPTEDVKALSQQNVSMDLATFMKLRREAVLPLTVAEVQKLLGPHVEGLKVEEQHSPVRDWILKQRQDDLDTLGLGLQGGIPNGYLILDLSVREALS

B1: S009-F8-36.12 (antibody, human IgG1, kappa, V domains shown)
VH: EVQLQQSGPELVKPGASVKISCKASGYTFTDYYMNWVKQSHGKSLEWIGDINPNNGGTSYNQKFKGKATLTVDKSSSTAYMELRSLTSEDSAVYYCASWGYGSSSRGYFDYWGQGTTLTVSS
VL: QIVLSQSPAILSASPGEKVTMTCRASSSVSYMHWYQQKPGSSPKPWIYATSNLASGVPARFSGSGSGTSYSLTISRVEAEDAATYYCQQWSSNPWTFGGGTKLEIKR
notes: human-murine chimeric antibody, human IgG1/kappa constant regions
B2: S009-F8-8.22 (antibody, human IgG1, kappa, V domains shown)
VH: EVQLQQSGPELVKPGASVKMSCKASGYTFTDYIIHWVKQSHGKSLEWIAYIFPNNGGTGYNQKFRGKATLTVNKSSSTAYMELRSLTSEDSAVYYCARWRLRQYFDVWGTGTTVTVSS
VL: DIVMTQSQKFMSTIVGDRVSITCKASQNVGTAVAWYQQKPGQSPKLLIYSASNRYTGVPDRFTGSGSGTDFTLTISNMQSEDLADYFCQQYSSYPLTFGGGTKLEIKR
notes: as for B1
B3: S009-F8-24.14 (antibody, human IgG1, kappa, V domains shown)
VH: EFQLQQSGPELVKPGASVKISCKASGYSFTDYNMNWVKLSNGKSLEWIGVIIPNYGTSSYNQKFKGKATLTVDQSSSTAYMQLNSLTSEDSAVYYCARWDNYYGSSLDYWGQGTTLTVSS
VL: B2 VL with I14T, T72I, G100A, I106L
notes: as for B1
B4: S009-F8-29.1 (antibody, human IgG1, kappa, V domains shown)
VH: QVQLQQSGAELARPGASVKMSCKASGYTFISYTMHWVKQRPGQGLEWIGYINPSSGYTKYNQKFKDKATLTADKSSSTAYMQLNSLTSEDSAVYYCARYYSNPDYYAMDYWGQGTSVTVSS
VL: QIVLTQSPAIMSASPGEKVTITCSASSSVSYMHWFQQKPGTSPKLWIYSTSNLASGVPARFSGSGSGTSYSLTISRMEAEDAATYYCQQRSSYPLTFGGGTKLELKR
notes: as for B1
B5: S009-F8-32.3 (antibody, human IgG1, kappa, V domains shown)
VH: QVQLKESGPGLVAPSQSLSITCTVSGFSLSSYAISWVRQPPGKGLEWLGVIWTGGGTNYNSALKSRLSISKDNSKSQVFLKMNSLQTDDTARFYCARNNYGRLDYAMDYWGQGTSVTVSS
VL: DVVMTQTPLSLPVSLGDQASISCRSSQSLVHGNGNTYLHWYLQKPGQSPKLLIYKVSNRFSGVPDRFSGSGSGTDFTLKISRVETEDLGVYFCSQSTHVPFTFGSGTKLEIKR
notes: as for B1
B6: S009-F1.2.12 (antibody, human IgG1, kappa, V domains shown)
VH: QVQLKQTGPGLVQPSQSLSITCTVSGFSLTNYAVHWVRQSPGKGLEWLGVIWSGGATDYNTVFISRLSISKDNSKSQVFFKVNSLQVDDTAIYYCARTGSGYAMDYWGQGTSVTVSS
VL: DIVLTQSPATLSVTPGDRVSLSCRTSHNVNTYLHWYQQKSHESPRLLIKYASQSISEIPSRFSGSGSGTNFTLSINSVETEDFGMYFCHQTNRWPLTFGAGTKLELKR
notes: as for B1
B7: S009-F1.7.14 (antibody, human IgG1, kappa)
heavy: not shown
light: QIVLTQSPAIMSASPGEKVTISCSASSSVSYMYWYQQKPGSSPKPWISRTSNLASGVPARFSGSGSGTSYSLTISSMEAEDAATYYCQQYHSYPPTLGAGTKLELKRTVAAPSVFIFPPSDEQLKSGTASVVCLLNNFYPREAKVQWKVDNALQSGNSQESVTEQDSKDSTYSLSSTLTLSKADYEKHKVYACEVTHQGLSSPVTKSFNRGEC
notes: as for B1
B8: S009-F1.35.24 (antibody, human IgG1, kappa, V domains shown)
VH: EVQLQQSEPELVKPGASVRISCKASGYSFTDYYMHWVKQSPENRLEWIGEINPSTGGTSYNPKFKDKATLTVDKSSSTAYMQLKSLTSEESAVYYCTRYHYYGSSSYVMDYWGQGTSVTVSS
VL: QIVLTQSPAILSASPGERVTMTCSASSSVYHMHWFQQKSGTSPKRWVYDTSKLASGVPARFSGSGSGTSYSLTISSMEAEDAATYYCQHWRTNPLTFGAGTKLELKR
notes: as for B1

The binders below were run against T2, human MSLN-FL-his protein (human, UniProt Q13421 296-580) (assay: competitive ELISA; row F8-22.23; also: test concentration or dose not given here).
T2 construct: made in HEK293E cells, purified on nickel column; also called hMSLN-FL-his; human MSLN full-length protein; not shown: His tag
T2 sequence (Q13421 other isoform, or with tags, fused parts or gaps): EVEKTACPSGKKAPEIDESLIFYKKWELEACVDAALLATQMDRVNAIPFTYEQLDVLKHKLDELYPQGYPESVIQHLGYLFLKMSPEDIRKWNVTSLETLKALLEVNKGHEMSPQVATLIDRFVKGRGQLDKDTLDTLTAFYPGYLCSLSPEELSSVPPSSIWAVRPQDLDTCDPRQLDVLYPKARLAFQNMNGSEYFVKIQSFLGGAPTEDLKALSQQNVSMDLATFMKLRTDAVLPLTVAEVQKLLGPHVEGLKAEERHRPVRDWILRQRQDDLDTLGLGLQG

competition rate	Binder
-3.1%	B1
96.1%	B2
80.3%	B3
88.5%	B4
96.6%	B5

Molecular target: T1, monkey MSLN full-length protein (NCBI: …)
Experiment: FACS on HEK293T-monkey MSLN cells
Procedure: (§1) The desired cells were expanded to the logarithmic growth phase in a T-75 cell culture flask. […] After the cells from the previous step were subjected to cell counting, the cell pellet was resuspended to 2×10⁶ cells/mL in a blocking buffer of [PBS+2% (w/w) BSA] and added into a 96-well FACS reaction plate at 50 μL/well. A chimeric antibody (a sample to be tested) was added at 50 μL/well, and the plate was incubated on ice for 2 h. […] After the plate was centrifuged and washed 5 times with a PBST buffer, assay and analysis were performed by FACS (FACS CantoII, purchased from BD). Data analysis was performed by software (Flowjo) to obtain the mean fluorescence intensity (MFI) of the cells.

EC50	Maximum mean fluorescence intensity	Binder
1.39 nM	29200	B6
5.69 nM	47500	B7
4.75 nM	52100	B8

These binders were tested against T2, human MSLN-FL-his protein (assay: competitive ELISA; row F8-28.23; also: test concentration or dose not given here).

competition rate	Binder
-10.7%	B1
97.4%	B2
95%	B3
96%	B4
102%	B5

These binders were tested against T3, human MSLN-R3 protein expressed on HEK293T cells (HEK293T-hMSLN-R3) (human, UniProt Q13421 487-606) (assay: FACS on HEK293T-hMSLN-R3 cells;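 also: chimeric antibodies incubated with cells on ice for 2 h, binding read by flow cytometry as mean fluorescence intensity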).
T3 construct: C-terminal limit uncertain
T3 sequence (Q13421 495-614): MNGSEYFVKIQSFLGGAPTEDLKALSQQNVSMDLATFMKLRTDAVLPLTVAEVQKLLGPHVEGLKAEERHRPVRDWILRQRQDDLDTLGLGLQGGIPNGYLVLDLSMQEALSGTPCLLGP

EC50	Maximum mean fluorescence intensity	binding result	Binder
11 nM	7970	–	B1
–	122	no binding	B2
–	82	no binding	B3
–	69	no binding	B4
–	50	no binding	B5

Each binder was assayed against T2, human MSLN-FL-his protein (assay: competitive ELISA; row Tab021; also: test concentration or dose not given here).

competition rate	Binder
6.4%	B1
12.6%	B2
5.3%	B3
11.1%	B4
10.9%	B5

The binders below were run against T2, human MSLN-FL-his protein (assay: competitive ELISA; row F8-8.22; also: test concentration or dose not given here).

competition rate	Binder
5.9%	B1
92.2%	B2
74.5%	B3
88.4%	B4
94.4%	B5

The binders below were run against T2, human MSLN-FL-his protein (assay: competitive ELISA; row F8-36.12; also: test concentration or dose not given here).

competition rate	Binder
61.5%	B1
-138%	B2
-142%	B3
-146%	B4
-164%	B5

Each binder was assayed against T2, human MSLN-FL-his protein (assay: SPR (Biacore), antibody captured on Protein A chip;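 also: flow cell at 25 °C, antigen injected for 240 s at five concentrations from 200 nM downward, dissociation followed up to 600 s, double-referenced, fitted with Langmuir 1:1 model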).
Procedure: The flow cell was set at 25° C. The sample block was set at 16° C. Both were pretreated with the running buffer. In each cycle, first, the antibody to be tested was captured using the Protein A chip, and then a single concentration of human MSLN-FL-his protein was injected. […] The association was determined by injecting different concentrations of human MSLN-FL-his in solution for 240 s on end, wherein the flow rate was 30 μL/min, and the protein was diluted in a 1:1 dilution ratio from 200 nM (see detailed results for actual concentrations tested) to obtain 5 concentrations in total. The dissociation phase was monitored for up to 600 s and triggered by switching from the sample solution to the running buffer. The surface was regenerated by washing with 10 mM glycine solution (pH 1.5) at a flow rate of 30 μL/min for 30 s. The difference in bulk refractive index was corrected by subtracting the responses obtained from the goat anti-human Fc surface. Blank injections were also subtracted (=double reference). To calculate the apparent KD and other kinetic parameters, the Langmuir 1:1 model was used.

Kd	koff	kon	Binder
103 nM	0.0122 s⁻¹	118000 M⁻¹ s⁻¹	B1
12.8 nM	0.00937 s⁻¹	732000 M⁻¹ s⁻¹	B2
9.13 nM	0.00501 s⁻¹	549000 M⁻¹ s⁻¹	B3
27.4 nM	0.0199 s⁻¹	728000 M⁻¹ s⁻¹	B4
6.5 nM	0.00331 s⁻¹	510000 M⁻¹ s⁻¹	B5

Each binder was assayed against T2, human MSLN-FL-his protein (assay: competitive ELISA; row F8-24.14; also: test concentration or dose not given here).

competition rate	Binder
10.3%	B1
91.1%	B2
77%	B3
89.8%	B4
95%	B5

Each binder was assayed against T2, human MSLN-FL-his protein (assay: competitive ELISA; row F8-9.16; also: test concentration or dose not given here).

competition rate	Binder
-47.7%	B1
-52.1%	B2
-65.5%	B3
-37.3%	B4
-113%	B5

What follows are binders tested against T2, human MSLN-FL-his protein (assay: competitive ELISA; row Tab142; also: test concentration or dose not given here).

competition rate	Binder
17.4%	B1
33.8%	B2
22.9%	B3
36.8%	B4
40.6%	B5

These binders were tested against T4, human MSLN protein endogenously expressed on OVCAR3 tumor cells (human, UniProt Q13421 296-598) (assay: FACS on OVCAR3 cells).
T4 construct: whole, on cells; Endogenous target on OVCAR3 cells; kept apart from the recombinant full-length construct; also called mesothelin
T4 sequence (Q13421 other isoform, or with tags, fused parts or gaps): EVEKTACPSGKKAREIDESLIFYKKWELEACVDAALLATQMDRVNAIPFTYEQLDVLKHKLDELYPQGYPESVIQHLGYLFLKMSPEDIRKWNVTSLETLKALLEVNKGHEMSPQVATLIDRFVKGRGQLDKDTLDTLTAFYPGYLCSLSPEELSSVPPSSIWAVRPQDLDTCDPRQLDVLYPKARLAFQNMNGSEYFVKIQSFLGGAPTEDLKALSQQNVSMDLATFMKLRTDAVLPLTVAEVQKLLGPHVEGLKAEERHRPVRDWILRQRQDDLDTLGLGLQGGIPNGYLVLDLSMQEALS
Procedure: as §1

EC50	Maximum mean fluorescence intensity	Binder
1.87 nM	9620	B6
–	2250	B7
2.08 nM	10500	B8

These binders were tested against T2, human MSLN-FL-his protein (assay: competitive ELISA; row F8-29.1; also: test concentration or dose not given here).

competition rate	Binder
9.4%	B1
59.2%	B2
43.7%	B3
62.2%	B4
65.9%	B5

Each binder was assayed against T2, human MSLN-FL-his protein (assay: competitive ELISA; row F8-33.12; also: test concentration or dose not given here).

competition rate	Binder
8.3%	B1
53.5%	B2
27.8%	B3
47.3%	B4
56.5%	B5

Each binder was assayed against T5, human MSLN-R3 protein (Met487-Ser606 of NCBI AAH09272.1) expressed on HEK293T-hMSLN-R3 cells (human, UniProt Q13421 487-606) (assay: FACS on HEK293T-hMSLN-R3 cells).
T5 construct: also called Region3
T5 sequence (Q13421 495-614): as the sequence (Q13421 495-614) above

Maximum mean fluorescence intensity	binding result	Binder
239	no binding	B6
239	no binding	B7
680	no binding	B8

The binders below were run against T6, human MSLN full-length protein (NCBI: AAH09272.1) expressed on HEK293T-hMSLN-B8 cells (human, UniProt Q13421 296-598) (assay: FACS on HEK293T-hMSLN-B8 cells).
T6 construct: Whole encoded precursor
T6 sequence (Q13421 other isoform, or with tags, fused parts or gaps limits assumed): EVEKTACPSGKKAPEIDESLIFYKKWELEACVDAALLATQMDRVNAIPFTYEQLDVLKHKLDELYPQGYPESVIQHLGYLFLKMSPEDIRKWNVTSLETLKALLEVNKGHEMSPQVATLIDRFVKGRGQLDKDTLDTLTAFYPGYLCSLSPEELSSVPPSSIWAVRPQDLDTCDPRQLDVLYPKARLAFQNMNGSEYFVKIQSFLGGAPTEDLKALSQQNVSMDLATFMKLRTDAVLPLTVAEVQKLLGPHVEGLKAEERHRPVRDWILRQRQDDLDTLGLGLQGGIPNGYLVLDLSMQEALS
Procedure: as §1

EC50	Maximum mean fluorescence intensity	Binder
~0.86 nM	87200	B6
3.4 nM	70300	B7
2.93 nM	109000	B8

What follows are binders tested against T2, human MSLN-FL-his protein (assay: competitive ELISA; row F8-32.3; also: test concentration or dose not given here).

competition rate	Binder
9.8%	B1
77.7%	B2
57.6%	B3
75.8%	B4
79.3%	B5

The binders below were run against T7, human MSLN protein endogenously expressed on OVCAR3 tumor cells (human, UniProt Q13421 296-598) (assay: FACS on OVCAR3 cells).
T7 construct: whole, on cells; endogenous expression on a tumor cell line; also called human mesothelin
T7 sequence (Q13421 other isoform, or with tags, fused parts or gaps): as the sequence (Q13421 other isoform, or with tags, fused parts or gaps limits assumed) above, with P14R counted along it
Procedure: as §1

EC50	Maximum mean fluorescence intensity	Binder
15.2 nM	2510	B1
9.9 nM	4270	B2
11.5 nM	4700	B3
33.4 nM	5430	B4
14.7 nM	8270	B5

— patent publication US20250250357A1 (NANJING ZAIMING PHARMACEUTICAL, published 2025)
